In patent US20070093443:

Experiments:
Ac-GLAR-AMC = target: T1, Ac-GLAR-AMC
T1 chain: GLAR

Ac-RQAR-AMC = target: T2, Ac-RQAR-AMC
T2 chain: RQAR

Ac-SLGR-AMC = target: T3, Ac-SLGR-AMC
T3 chain: SLGR

Complement C2 (human) = target: T4, Complement C2 (human)
T4 chain: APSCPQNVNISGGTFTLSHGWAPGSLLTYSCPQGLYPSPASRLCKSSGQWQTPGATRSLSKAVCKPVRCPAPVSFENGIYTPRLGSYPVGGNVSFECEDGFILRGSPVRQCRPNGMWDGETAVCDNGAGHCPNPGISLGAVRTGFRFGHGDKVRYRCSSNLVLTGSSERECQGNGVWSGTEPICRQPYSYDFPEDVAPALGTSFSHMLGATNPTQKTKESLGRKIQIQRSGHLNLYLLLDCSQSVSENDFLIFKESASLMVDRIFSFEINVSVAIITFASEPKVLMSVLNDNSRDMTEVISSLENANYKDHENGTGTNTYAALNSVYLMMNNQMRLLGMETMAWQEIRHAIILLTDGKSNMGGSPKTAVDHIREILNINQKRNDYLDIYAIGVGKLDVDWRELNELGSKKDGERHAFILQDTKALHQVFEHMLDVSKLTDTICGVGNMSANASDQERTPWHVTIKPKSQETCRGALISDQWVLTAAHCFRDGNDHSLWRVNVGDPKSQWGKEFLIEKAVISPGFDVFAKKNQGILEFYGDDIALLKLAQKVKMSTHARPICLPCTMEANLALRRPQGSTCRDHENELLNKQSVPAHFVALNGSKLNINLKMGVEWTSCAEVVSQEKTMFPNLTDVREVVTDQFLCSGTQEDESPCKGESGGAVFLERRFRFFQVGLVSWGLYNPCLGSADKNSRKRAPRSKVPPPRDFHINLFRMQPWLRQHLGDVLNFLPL

Complement C4 (human) = target: T5, Complement C4 (human)
T5 chain 1: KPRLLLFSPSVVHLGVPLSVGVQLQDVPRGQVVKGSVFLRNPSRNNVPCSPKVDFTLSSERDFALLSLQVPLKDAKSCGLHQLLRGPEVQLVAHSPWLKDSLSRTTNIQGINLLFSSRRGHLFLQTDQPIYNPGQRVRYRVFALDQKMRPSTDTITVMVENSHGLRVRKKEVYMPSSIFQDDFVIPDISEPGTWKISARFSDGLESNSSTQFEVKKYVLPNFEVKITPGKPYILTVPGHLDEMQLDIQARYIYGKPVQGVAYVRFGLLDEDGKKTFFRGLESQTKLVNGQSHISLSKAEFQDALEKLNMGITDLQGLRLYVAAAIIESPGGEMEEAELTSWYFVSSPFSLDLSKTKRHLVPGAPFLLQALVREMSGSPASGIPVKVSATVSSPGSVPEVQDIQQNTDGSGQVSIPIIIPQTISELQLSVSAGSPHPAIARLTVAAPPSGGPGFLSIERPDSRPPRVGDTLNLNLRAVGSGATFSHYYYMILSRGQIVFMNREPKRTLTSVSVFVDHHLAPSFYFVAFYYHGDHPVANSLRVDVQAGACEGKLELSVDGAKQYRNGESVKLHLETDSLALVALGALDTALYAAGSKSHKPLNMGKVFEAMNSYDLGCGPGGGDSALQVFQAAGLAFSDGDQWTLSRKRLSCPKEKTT
T5 chain 2: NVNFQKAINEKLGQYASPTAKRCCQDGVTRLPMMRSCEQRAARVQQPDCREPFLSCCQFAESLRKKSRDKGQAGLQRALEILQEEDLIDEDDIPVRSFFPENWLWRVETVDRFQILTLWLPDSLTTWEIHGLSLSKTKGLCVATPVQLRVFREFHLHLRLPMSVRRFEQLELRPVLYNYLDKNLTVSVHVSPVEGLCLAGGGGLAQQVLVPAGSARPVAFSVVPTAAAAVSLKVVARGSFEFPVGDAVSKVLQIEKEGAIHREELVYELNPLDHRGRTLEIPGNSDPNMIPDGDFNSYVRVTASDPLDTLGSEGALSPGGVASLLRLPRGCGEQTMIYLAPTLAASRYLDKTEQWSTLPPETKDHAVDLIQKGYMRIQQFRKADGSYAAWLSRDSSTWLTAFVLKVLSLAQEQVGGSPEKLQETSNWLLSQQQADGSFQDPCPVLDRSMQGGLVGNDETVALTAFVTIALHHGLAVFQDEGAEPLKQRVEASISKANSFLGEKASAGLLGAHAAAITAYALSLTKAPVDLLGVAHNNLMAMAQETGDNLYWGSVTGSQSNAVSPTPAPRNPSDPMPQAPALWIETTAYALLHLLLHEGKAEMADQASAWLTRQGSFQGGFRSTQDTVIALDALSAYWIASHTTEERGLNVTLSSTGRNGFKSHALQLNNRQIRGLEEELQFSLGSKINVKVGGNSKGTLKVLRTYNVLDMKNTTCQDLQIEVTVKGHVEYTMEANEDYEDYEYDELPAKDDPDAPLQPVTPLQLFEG
T5 chain 3: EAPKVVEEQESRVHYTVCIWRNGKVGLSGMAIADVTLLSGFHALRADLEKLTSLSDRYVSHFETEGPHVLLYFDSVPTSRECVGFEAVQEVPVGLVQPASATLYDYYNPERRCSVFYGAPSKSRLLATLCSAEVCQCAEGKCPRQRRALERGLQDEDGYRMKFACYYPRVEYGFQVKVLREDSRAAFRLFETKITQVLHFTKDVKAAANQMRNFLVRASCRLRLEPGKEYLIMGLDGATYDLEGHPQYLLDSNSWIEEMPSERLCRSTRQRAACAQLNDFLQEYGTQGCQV

[1] = target: Complement component C6 (human)
[2] = target: Complement component C7 (human)
[3] = target: Complement component C8 (human)
[4] = target: Complement component C9 (human)
Sequence of Complement component C9 (human) (chain, as listed by the source): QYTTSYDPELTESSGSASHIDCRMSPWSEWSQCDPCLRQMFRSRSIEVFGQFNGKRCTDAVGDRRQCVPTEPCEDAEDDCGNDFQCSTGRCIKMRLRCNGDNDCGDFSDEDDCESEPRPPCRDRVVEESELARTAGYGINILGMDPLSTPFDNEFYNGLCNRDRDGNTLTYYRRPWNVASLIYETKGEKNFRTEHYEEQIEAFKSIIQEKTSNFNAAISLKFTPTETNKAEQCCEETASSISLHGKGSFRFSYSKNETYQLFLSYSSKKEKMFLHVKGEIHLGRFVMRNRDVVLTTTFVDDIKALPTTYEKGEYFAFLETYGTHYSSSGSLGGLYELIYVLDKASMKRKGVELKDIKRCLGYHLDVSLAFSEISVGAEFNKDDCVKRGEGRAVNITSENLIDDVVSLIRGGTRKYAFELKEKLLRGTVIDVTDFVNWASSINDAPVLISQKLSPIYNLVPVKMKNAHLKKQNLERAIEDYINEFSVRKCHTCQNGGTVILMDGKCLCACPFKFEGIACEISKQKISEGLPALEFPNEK

Sequence of Complement C5 (human) (chain, as listed by the source, chain 1 of 2): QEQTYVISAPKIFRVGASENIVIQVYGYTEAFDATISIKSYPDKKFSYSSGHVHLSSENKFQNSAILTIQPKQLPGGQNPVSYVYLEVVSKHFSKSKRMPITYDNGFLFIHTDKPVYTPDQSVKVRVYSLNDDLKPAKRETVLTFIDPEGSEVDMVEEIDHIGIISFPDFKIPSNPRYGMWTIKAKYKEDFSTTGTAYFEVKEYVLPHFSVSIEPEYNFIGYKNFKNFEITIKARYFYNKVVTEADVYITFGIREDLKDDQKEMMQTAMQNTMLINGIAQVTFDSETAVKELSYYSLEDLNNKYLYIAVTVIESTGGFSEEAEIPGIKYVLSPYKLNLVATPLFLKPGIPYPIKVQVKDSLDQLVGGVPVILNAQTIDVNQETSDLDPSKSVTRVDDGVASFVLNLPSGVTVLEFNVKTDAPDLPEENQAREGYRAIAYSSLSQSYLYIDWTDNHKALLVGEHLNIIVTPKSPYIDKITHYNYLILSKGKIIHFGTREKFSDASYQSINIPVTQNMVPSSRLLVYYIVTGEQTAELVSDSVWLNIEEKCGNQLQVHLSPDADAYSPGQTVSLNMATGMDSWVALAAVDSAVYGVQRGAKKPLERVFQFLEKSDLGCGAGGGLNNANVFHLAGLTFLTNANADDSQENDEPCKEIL
Sequence of Complement C5 (human) (chain, as listed by the source, chain 2 of 2): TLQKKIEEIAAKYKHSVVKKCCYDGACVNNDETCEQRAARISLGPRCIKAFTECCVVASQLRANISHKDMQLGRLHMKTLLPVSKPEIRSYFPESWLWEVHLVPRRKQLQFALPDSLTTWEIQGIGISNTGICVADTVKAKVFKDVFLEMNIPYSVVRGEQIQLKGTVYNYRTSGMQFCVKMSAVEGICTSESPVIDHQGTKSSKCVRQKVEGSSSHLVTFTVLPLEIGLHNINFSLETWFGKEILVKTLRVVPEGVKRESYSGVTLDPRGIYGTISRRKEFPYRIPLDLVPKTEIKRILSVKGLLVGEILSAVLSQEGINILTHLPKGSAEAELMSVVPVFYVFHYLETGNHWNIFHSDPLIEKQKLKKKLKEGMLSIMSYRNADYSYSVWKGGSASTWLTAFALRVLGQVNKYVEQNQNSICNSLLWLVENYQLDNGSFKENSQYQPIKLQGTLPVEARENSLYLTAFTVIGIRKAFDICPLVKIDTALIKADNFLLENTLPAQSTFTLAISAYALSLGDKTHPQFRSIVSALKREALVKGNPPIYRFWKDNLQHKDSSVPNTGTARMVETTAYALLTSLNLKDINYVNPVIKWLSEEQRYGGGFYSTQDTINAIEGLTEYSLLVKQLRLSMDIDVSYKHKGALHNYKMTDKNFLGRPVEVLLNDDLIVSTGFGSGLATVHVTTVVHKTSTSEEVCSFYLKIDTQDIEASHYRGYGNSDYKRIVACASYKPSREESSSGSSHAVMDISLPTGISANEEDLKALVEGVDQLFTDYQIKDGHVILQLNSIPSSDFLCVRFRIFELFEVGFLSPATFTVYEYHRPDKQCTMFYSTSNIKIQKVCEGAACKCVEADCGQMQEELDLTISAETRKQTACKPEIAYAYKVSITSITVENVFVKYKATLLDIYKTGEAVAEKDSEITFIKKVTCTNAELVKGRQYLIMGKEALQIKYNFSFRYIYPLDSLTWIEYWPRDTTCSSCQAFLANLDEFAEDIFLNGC
Sequence of Complement component C6 (human) (chain, as listed by the source): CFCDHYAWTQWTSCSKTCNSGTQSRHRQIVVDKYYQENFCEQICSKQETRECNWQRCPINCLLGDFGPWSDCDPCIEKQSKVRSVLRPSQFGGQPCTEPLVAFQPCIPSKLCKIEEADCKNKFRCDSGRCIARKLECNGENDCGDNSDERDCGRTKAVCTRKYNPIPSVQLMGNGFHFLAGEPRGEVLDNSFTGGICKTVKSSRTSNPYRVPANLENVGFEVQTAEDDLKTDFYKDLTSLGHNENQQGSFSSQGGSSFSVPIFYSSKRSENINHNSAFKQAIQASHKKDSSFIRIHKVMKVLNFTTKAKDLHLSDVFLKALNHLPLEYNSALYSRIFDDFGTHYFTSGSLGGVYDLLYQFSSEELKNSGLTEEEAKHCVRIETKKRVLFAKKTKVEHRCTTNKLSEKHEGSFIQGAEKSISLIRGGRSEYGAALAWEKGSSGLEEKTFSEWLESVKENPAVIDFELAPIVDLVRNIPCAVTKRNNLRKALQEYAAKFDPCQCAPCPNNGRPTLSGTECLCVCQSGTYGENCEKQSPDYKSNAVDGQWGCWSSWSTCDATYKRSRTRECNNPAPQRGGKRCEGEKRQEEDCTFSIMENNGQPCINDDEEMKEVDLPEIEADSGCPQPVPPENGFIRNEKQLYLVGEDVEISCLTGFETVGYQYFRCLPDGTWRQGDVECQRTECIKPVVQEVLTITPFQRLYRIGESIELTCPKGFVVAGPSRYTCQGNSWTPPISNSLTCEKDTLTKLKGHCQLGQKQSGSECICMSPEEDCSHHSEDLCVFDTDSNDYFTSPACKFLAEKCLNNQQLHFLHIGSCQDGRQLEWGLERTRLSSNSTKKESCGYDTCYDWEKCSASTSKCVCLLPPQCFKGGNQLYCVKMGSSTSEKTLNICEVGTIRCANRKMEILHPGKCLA
Sequence of Complement component C7 (human) (chain, as listed by the source): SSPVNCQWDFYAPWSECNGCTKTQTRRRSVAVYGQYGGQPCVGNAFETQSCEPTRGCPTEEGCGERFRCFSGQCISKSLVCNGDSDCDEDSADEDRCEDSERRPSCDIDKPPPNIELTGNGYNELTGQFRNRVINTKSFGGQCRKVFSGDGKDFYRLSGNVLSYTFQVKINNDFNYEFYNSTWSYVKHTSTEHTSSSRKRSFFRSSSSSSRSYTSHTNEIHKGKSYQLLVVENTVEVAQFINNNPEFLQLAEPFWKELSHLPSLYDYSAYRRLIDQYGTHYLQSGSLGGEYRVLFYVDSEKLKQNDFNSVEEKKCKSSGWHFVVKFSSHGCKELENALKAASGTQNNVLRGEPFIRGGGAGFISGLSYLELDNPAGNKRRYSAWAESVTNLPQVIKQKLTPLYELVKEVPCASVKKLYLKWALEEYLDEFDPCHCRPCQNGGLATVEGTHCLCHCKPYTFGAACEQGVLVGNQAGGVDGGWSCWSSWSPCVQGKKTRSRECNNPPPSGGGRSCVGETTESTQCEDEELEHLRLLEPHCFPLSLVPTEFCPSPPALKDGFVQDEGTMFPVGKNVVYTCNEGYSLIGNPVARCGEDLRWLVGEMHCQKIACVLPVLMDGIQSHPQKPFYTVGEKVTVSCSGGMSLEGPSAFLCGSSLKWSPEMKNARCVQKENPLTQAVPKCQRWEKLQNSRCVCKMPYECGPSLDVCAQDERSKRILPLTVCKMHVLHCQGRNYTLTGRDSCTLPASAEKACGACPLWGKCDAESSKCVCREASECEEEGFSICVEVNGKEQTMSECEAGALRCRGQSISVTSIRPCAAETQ

B1: wildtype MT-SP1 protease domain (CB200) (protein)
chain: VVGGTDADEGEWPWQVSLHALGQGHICGASLISPNWLVSAAHCYIDDRGFRYSDPTQWTAFLGLHDQSQRSAPGVQERRLKRIISHPFFNDFTFDYDIALLELEKPAEYSSMVRPICLPDASHVFPAGKAIWVTGWGHTQYGGTGALILQKGEIRVINQTTCENLLPQQITPRMMCVGFLSGGVDSCQGDSGGPLSSVEADGRIFQAGVVSWGDGCAQRNKPGVYTRLPLFRDWIKENTGV
- kcat/Km (specificity constant), fluorogenic peptide cleavage (Ac-GLAR-AMC): 64000 M⁻¹ s⁻¹
- kcat/Km (specificity constant), fluorogenic peptide cleavage (Ac-RQAR-AMC): 1.9e+06 M⁻¹ s⁻¹
- kcat/Km (specificity constant), fluorogenic peptide cleavage (Ac-SLGR-AMC): 20000 M⁻¹ s⁻¹
- hemolysis (OD415) by protease-preincubated purified complement protein added back to the corresponding depleted sera (Complement C1q (human)): showed no decreased hemolysis as compared to normal sera or the no protease control
- Fraction of Hemolysis (protease-incubated purified complement protein added back to depleted sera) (Complement C2 (human)): 0
- cleavage in 90% human plasma by Western blot (Complement C2 (human)): cleaved C2 in human plasma in a dose-dependent manner
- fraction C5b-9 generated, Total Complement System Screen (classical and MBL pathways), 1 uM protease in human plasma (Complement C2 (human)): the fraction C5b-9 generated upon complement activation induced by the classical and MBL pathways was almost completely inhibited
- hemolysis (OD415) by protease-preincubated purified complement protein added back to the corresponding depleted sera (Complement C2 (human)): resulted in an inhibition of hemolysis as assessed by a reduced OD415 absorbance to levels comparable to the depleted sera control
- kcat/Km (specificity constant) of cleavage of full length C2, in gel kinetics (SDS-PAGE densitometry time course) (Complement C2 (human)): 19500 M⁻¹ s⁻¹
- Fraction of Hemolysis (protease-incubated purified complement protein added back to depleted sera) (Complement C3 (human)): 0.00834
- cleavage in 90% human plasma by Western blot (Complement C3 (human)): none of the tested proteases cleaved C3 in human plasma as compared to the no protease control even at the highest concentration of protease (2000 nM)
- hemolysis (OD415) by protease-preincubated purified complement protein added back to the corresponding depleted sera (Complement C3 (human)): showed no decreased hemolysis as compared to normal sera or the no protease control
- Fraction of Hemolysis (protease-incubated purified complement protein added back to depleted sera) (Complement C4 (human)): 0.97
- hemolysis (OD415) by protease-preincubated purified complement protein added back to the corresponding depleted sera (Complement C4 (human)): showed no decreased hemolysis as compared to normal sera or the no protease control
- Fraction of Hemolysis (protease-incubated purified complement protein added back to depleted sera) (Complement C5 (human)): 0.888
- hemolysis (OD415) by protease-preincubated purified complement protein added back to the corresponding depleted sera (Complement C5 (human)): showed no decreased hemolysis as compared to normal sera or the no protease control
- hemolysis (OD415) by protease-preincubated purified complement protein added back to the corresponding depleted sera [1]: showed no decreased hemolysis as compared to normal sera or the no protease control
- hemolysis (OD415) by protease-preincubated purified complement protein added back to the corresponding depleted sera [2]: showed no decreased hemolysis as compared to normal sera or the no protease control
- hemolysis (OD415) by protease-preincubated purified complement protein added back to the corresponding depleted sera [3]: showed no decreased hemolysis as compared to normal sera or the no protease control
- hemolysis (OD415) by protease-preincubated purified complement protein added back to the corresponding depleted sera [4]: showed no decreased hemolysis as compared to normal sera or the no protease control
